Test results: publication PMC9329959, “A Feedback Regulatory Loop Involving dTrbd/dTak1 in Controlling IMD Signaling in Drosophila Melanogaster” (Frontiers in Immunology, 2022)

Biological target: the molecule itself
Test: SDD-AGE; purified proteins loaded in 0.5 x TBE, 10% glycerol, 2% SDS at room temperature; 1.5% agarose gel with 0.1% SDS; immunoblot

B1: GST-tagged dTrbd^FL (enzyme, Drosophila melanogaster, UniProt Q9VH90 1-778, looked up)
chain: MCDTKDDAQKWKCETCTYENYPSSLKCTMCQASKPLLNEDIFRLSPAQESCTVAEEAAAVEVAVMSPTPSSTCYSLQPQSQARQSNVADSEKWPCKVCTYLNWPRSLRCVQCCTKRGGEAIERGKKDMDNEADGDRAGEALQALRISGSEENLANKPVQLIGATASHRLSLSRGIDDATHLNNLANASHNQSQSQHRQPVLQQQMQLQLQPQQQRESSSSAAVPPQQQKQCYVSKWACNSCTYENWPRSIKCSMCGKTREREISGSQNDLHASSSLNSQEENQQQLQQPNVDTVSVNNSFNKKHIYQLGSSETINNCDTLQERQERRQRQIRRQVDWQWLNACLGVVENNYSAVEAYLSCGGNPARSLTSTEIAALNRNSAFDVGHTLIHLAIRFHREEMLPMLLDQISGSGPGIKRVPSYVAPDLAADIRRHFANTLRLRKSGLPCHYVQKHATFALPAEIEELPIPIQEQLYDELLDRDAQKQLETPPPALNWSLEITARLSSRMFVLWNRSAGDCLLDSAMQATWGVFDRDNILRRALADTLHQCGHVFFTRWKEYEMLQASMLHFTLEDSQFEEDWSTLLSLAGQPGSSLEQLHIFALAHILRRPIIVYGVKYVKSFRGEDIGYARFEGVYLPLFWDQNFCTKSPIALGYTRGHFSALVPMEPFTRIDGRRDDVEDVTYLPLMDCELKLLPIHFLTQSEVGNEESMMRQWLDVCVTDGGLLVAQQKLSKRPLLVAQMLEEWLNHYRRIAQVITAPFIRRPQITHYSSDGDSDEE
notes: dTrbd, Drosophila deubiquitinase, full length; also called GST-dTrbd^FL; source: E. coli BL21, purified (Glutathione Sepharose 4B)
**Q.** Does B1 bind?
**A.** binds
